Measured values from patent publication US7384773B1, “Crystal of HIV protease-cleaved human beta secretase and method for crystallization thereof” (Pfizer Inc, priority 2001, dated 2008).

Target: T1, beta secretase (Homo sapiens, UniProt P56817)
T1 construct: made in house; host or cells: CHO-K1 cells (secreted, glycosylated)
Assay: beta secretase enzymatic activity assayed by HPLC analysis of the products
Type: biochemical
Conditions: CHO cell derived human beta secretase cleaved at F39-V40 by HIV-1 protease and purified, compared with non-treated beta secretase
Experimental: Purified HIV-1 protease treated (and non-treated) beta secretase were assayed for activity by HPLC analysis of the products.

B1: HIV-1 protease treated beta secretase: CHO cell expressed recombinant human beta secretase proteolytically cleaved with HIV protease (N-terminus V40), used for crystallization (protein)
chain: VEMVDNLRGKSGQGYYVEMTVGSPPQTLNILVDTGSSNFAVGAAPHPFLHRYYQRQLSSTYRDLRKGVYVPYTQGKWEGELGTDLVSIPHGPNVTVRANIAAITESDKFFINGSNWEGILGLAYAEIARPDDSLEPFFDSLVKQTHVPNLFSLQLCGAGFPLNQSEVLASVGGSMIIGGIDHSLYTGSLWYTPIRREWYYEVIIVRVEINGQDLKMDCKEYNYDKSIVDSGTTNLRLPKKVFEAAVKSIKAASSTEKFPDGFWLGEQLVCWQAGTTPWNIFPVISLYLMGEVTNQSFRITILPQQYLRPVEDVATSQDDCYKFAISQSSTGTVMGAVIMEGFYVVFDRARKRIGFAVSACHVHDEFRTAAVEGPFVTLDMEDCGYNIPQTDESHHHHHH
  more enzymatic activity than non-treated (unprocessed) beta secretase: 10-20%
